B1: Ada1 (natural protein)
chain: MSAIQSPAPKPLQPTYPAASPASTNAYMKPGLIGSPAVSNHTEPNNGNNETAEPQGPNQRIDLGAMIEELTSLLGKESWTKYAQIISLFILGKLSRKELSNELELVFSPSAASLEKSNTNHHHSLVRLHNQLLLGIFANSLRENPLGRNGNESSWGFGNGSNNPNNKLKRINKHNSQIEVYKKIVMSLPLNDRNRLKMITKEAGKRGFIFCSVFQARLNNIPKIPIVTNPESLKRVKSNNLKTPLEWSQDIMNGFNVPLASESHSLPDTDSFYLRMVGIAREHGLVGTVDARCVELISLALDQYLKNIIEFTIDTVRYRRKKYSDYYDLNESGLYKSVSEMAADKRDAKIKQLDDDKNEDECADEAKSINNGNNSSKDDIGDISMSSITKAGEAVNEELHENRTISLTNEDIYDSLSIFPNLVEPSGSYYALTNLGLVNDDELVDMKSNIDDLPDFLNEKPTFTPLDERNVGTRHELNWLIKGILTED
B2: Taf12 (natural protein)
chain: MSSNPENSGVNANNNTGTGNADAITGAQQNMVLQPRQLQEMAAKFRTLLTEARNVGETTPRGKELMFQAAKIKQVYDALTLNRRRQQAAQAYNNTSNSNSSNPASIPTENVPNSSQQQQQQQQQTRNNSNKFSNMIKQVLTPEENQEYEKLWQNFQVRHTSIKEKETYLKQNIDRLEQEINKQTDEGPKQQLQEKKIELLNDWKVLKIEYTKLFNNYQNSKKTFYVECARHNPALHKFLQESTQQQRVQQQRVQQQQQQQQQQQQQQQQQQQQQQQRQGQNQRKISSSNSTEIPSVTGPDALKSQQQQQNTITATNNPRGNVNTSQTEQSKAKVTNVNATASMLNNISSSKSAIFKQTEPAIPISENISTKTPAPVAYRSNRPTITGGSAMNASALNTPATTKLPPYEMDTQRVMSKRKLRELVKTVGIDEGDGETVIDGDVEELLLDLADDFVTNVTAFSCRLAKHRKSDNLEARDIQLHLERNWNIRIPGYSADEIRSTRKWNPSQNYNQKLQSITSDKVAAAKNNGNNVASLNTKK

Common to all, as to assay: cryo-EM structure
The test “Taf12” deals with B2.
A further test deals with T1, Sgf73 (S. cerevisiae, UniProt P53165 1-657).
T1 sequence: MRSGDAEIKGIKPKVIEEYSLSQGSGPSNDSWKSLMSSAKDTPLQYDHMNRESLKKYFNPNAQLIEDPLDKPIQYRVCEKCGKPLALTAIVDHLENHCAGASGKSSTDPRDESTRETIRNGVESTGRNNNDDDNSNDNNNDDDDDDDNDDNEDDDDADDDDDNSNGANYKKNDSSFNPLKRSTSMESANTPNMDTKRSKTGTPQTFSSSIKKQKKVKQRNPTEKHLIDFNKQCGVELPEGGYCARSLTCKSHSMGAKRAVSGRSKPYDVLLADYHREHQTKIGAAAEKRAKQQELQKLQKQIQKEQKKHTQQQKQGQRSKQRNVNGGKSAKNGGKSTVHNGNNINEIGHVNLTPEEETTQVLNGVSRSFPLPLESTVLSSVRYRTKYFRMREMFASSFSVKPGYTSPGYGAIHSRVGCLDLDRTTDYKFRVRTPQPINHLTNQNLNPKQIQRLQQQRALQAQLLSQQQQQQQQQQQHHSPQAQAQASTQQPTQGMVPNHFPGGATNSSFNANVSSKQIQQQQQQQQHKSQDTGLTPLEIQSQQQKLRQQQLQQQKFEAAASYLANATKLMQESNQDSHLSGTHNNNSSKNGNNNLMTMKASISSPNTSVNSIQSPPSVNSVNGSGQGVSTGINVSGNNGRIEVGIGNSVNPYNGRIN

For the next test, the target named is T2, Spt20 (S. cerevisiae, UniProt P50875 1-604).
T2 sequence: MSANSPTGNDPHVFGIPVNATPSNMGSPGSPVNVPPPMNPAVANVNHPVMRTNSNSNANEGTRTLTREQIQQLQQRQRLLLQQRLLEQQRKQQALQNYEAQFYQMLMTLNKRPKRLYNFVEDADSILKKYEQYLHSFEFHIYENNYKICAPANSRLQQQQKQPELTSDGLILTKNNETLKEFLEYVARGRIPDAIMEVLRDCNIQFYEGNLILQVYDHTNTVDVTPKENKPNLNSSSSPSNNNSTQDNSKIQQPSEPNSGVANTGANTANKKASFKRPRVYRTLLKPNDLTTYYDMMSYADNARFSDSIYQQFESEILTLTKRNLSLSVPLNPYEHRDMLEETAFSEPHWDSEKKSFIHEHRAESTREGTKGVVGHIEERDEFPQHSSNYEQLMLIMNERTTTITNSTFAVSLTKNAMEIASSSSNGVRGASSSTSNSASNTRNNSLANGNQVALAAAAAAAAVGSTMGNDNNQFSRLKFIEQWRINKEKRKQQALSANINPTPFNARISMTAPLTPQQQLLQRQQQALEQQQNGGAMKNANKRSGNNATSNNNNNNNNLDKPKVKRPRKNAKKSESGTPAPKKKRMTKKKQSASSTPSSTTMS

For a further test, the target named is Tra1 (S. cerevisiae, UniProt P38811 1-3744).

Data on two molecules can be found in paper PMC6994259 (Nature, 2020).

Tra1, sequence (P38811 whole entry): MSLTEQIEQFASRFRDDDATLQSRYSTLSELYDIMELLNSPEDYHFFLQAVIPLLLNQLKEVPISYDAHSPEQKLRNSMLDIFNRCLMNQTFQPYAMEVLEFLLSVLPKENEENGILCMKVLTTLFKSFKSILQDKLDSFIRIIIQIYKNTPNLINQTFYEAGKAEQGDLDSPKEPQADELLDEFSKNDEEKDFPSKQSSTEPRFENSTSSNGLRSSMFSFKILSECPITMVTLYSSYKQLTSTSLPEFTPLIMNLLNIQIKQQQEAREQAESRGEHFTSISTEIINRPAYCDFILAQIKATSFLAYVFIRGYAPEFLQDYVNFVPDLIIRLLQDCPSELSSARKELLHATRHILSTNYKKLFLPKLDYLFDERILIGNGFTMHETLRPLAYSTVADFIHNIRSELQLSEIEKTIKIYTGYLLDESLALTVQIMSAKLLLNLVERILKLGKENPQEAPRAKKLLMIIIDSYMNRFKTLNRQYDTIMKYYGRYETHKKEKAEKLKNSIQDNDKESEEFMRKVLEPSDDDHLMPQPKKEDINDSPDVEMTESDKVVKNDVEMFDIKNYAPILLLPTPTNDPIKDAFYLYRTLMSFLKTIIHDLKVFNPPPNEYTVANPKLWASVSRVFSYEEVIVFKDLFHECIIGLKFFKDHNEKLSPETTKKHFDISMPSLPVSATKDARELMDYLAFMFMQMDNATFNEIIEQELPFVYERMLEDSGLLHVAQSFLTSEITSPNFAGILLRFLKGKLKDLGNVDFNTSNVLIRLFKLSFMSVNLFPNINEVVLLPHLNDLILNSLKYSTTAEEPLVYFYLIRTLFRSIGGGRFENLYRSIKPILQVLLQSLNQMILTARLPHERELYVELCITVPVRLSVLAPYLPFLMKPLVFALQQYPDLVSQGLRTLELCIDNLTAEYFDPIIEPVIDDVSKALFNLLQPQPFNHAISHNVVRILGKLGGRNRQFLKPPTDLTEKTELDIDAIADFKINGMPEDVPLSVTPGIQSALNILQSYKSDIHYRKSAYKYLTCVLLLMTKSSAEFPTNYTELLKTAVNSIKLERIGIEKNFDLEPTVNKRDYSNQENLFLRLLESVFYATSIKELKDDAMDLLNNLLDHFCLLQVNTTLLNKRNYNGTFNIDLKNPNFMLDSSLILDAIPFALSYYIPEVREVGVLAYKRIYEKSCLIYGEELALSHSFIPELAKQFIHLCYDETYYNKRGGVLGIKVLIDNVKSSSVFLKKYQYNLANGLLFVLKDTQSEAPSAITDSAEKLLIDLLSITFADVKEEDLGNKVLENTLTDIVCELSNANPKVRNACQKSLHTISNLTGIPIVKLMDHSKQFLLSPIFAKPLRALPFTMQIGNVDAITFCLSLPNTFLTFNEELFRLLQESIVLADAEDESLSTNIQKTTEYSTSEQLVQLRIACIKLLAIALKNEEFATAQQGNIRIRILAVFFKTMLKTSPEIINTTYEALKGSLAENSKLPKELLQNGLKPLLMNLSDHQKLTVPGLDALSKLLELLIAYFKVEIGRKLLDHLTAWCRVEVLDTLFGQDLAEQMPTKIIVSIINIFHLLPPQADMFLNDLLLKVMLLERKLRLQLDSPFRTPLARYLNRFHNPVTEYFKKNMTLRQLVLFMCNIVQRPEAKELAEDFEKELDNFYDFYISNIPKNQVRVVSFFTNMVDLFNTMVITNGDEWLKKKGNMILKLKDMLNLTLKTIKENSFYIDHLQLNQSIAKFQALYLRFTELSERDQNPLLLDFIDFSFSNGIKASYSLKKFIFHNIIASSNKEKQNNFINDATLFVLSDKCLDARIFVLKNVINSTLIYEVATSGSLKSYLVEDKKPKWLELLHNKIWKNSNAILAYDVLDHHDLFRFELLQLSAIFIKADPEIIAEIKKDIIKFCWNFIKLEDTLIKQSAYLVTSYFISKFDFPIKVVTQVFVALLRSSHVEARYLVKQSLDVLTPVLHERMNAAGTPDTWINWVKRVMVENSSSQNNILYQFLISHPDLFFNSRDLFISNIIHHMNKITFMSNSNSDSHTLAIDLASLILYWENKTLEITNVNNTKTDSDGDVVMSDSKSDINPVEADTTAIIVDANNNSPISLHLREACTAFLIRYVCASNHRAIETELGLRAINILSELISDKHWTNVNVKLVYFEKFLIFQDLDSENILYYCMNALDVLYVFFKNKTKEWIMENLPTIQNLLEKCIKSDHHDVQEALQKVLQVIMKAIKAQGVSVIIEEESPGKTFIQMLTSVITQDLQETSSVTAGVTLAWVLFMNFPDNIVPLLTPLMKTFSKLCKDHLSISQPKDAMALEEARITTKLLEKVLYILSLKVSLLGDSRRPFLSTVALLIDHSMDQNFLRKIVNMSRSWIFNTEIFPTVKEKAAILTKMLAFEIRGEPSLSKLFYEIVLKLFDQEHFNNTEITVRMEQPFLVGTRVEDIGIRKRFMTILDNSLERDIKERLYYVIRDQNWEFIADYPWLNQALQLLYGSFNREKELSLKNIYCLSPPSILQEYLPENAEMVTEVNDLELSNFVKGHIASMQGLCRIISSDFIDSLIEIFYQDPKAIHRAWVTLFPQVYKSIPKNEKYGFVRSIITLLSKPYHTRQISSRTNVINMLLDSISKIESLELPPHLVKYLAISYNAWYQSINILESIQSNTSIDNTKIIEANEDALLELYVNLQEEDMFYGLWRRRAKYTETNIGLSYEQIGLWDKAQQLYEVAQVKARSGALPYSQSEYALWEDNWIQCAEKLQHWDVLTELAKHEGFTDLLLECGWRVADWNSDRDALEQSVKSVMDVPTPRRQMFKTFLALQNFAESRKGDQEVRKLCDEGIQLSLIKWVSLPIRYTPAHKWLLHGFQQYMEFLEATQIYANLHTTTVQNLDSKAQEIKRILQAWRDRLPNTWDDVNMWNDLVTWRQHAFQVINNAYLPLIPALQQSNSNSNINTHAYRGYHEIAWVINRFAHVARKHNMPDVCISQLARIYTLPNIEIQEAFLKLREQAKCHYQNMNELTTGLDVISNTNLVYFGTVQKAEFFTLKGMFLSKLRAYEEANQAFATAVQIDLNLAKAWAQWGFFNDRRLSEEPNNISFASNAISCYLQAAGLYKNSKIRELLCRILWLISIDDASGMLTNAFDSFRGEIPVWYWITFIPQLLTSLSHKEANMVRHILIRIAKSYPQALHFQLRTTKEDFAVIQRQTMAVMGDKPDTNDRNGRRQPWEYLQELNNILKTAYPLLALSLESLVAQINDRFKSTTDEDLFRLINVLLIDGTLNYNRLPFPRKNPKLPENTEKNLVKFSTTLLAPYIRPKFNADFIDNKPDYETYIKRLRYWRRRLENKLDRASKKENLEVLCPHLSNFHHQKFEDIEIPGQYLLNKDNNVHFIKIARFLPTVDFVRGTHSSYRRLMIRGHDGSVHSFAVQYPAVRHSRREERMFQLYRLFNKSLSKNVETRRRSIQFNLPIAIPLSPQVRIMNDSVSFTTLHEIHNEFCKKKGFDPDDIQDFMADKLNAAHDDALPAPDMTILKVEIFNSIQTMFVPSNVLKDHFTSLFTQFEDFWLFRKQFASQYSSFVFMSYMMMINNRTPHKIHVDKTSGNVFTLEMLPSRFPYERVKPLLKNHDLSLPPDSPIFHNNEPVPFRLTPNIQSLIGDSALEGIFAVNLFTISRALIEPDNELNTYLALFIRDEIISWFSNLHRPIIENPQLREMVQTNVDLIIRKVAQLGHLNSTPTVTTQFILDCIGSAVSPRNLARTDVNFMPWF

Regarding B1, the binding result in the test with Taf12 and with Sgf73 was “binds” in each case.

As to B2, the binding result in the test with Spt20, in the test with Sgf73 and in the test with Tra1 was “binds” in each case.
